Experimental data taken from patent US10464978B2, “Peptides and combination of peptides for use in immunotherapy against ovarian cancer and other cancers” (immatics biotechnologies GmbH, priority 2015, dated 2019).

Target: HLA-A*02:01 (Homo sapiens, UniProt P04439, D140Y/D185E/D98H/E176V/E277Q/G131W/G231S/I119V/I121R/I166T/I218V/L300P/L318F/N151K/N90K/P208A/P217A/Q86G/Q94H/R138H/R169H/T345S)
Assay: MHC binding assay: UV-ligand exchange with beta2m ELISA (peptide exchange yield)
Settings: binding to HLA-A*02:01
Excerpt: Candidate peptides for T cell based therapies according to the present invention were further tested for their MHC binding capacity (affinity). The individual peptide-MHC complexes were produced by UV-ligand exchange, where a UV-sensitive peptide is cleaved upon UV-irradiation, and exchanged with the peptide of interest as analyzed. Only peptide candidates that can effectively bind and stabilize the peptide-receptive MHC molecules prevent dissociation of the MHC complexes. To determine the yield of the exchange reaction, an ELISA was performed based on the detection of the light chain ([…]) of stabilized MHC complexes. The assay was performed as generally described in Rodenko et al. (Rodenko et al., 2006).
96 well MAXISorp plates (NUNC) were coated over night with 2 ug/ml streptavidin in PBS at room temperature, washed 4× and blocked for 1 h at 37° C. in 2% BSA containing blocking buffer. […] Peptide-MHC monomers of the UV-exchange reaction were diluted 100 fold in blocking buffer. Samples were incubated for 1h at 37° C., washed four times, incubated with 2 ug/ml HRP conjugated anti-β2m for 1h at 37° C., washed again and detected with TMB solution that is stopped with […]. Absorption was measured at 450 nm. Candidate peptides that show a high exchange yield (preferably higher than 50%, most preferred higher than 75%) are generally preferred for a generation and production of antibodies or fragments thereof, and/or T cell receptors or fragments thereof, as they show sufficient avidity to the MHC molecules and prevent dissociation of the MHC complexes.

Substance | Peptide exchange (MHC class I binding score, peptide exchange yield)
60 (SLTIDGIYYV; listed as Homo sapiens) [compound 60] | “++++” (≥75% = ++++)
61 (FLQGYQLHL; listed as Homo sapiens) [compound 61] | “++++” (≥75% = ++++)
62 (VLLDVSAGQLLM; listed as Homo sapiens) [compound 62] | “++++” (≥75% = ++++)
63 (YLLPSGGSVTL; listed as Homo sapiens) [compound 63] | “++” (≥20% = ++)
64 (YAAPGGLIGV; listed as Homo sapiens) [compound 64] | “++” (≥20% = ++)
66 (FLDENIGGVAV; listed as Homo sapiens) [compound 66] | “+++” (≥50 = +++)
67 (TLLAEALVTV; listed as Homo sapiens) [compound 67] | “+++” (≥50 = +++)
68 (SLMELPRGLFL; listed as Homo sapiens) [compound 68] | “++++” (≥75% = ++++)
69 (FQLDPSSGVLVTV; listed as Homo sapiens) [compound 69] | “+++” (≥50 = +++)
70 (GLLDYPVGV; listed as Homo sapiens) [compound 70] | “+++” (≥50 = +++)
71 (GILARIASV; listed as Homo sapiens) [compound 71] | “+++” (≥50 = +++)
72 (SLLELDGINL; listed as Homo sapiens) [compound 72] | “+++” (≥50 = +++)
73 (NIFDLQIYV; listed as Homo sapiens) [compound 73] | “+++” (≥50 = +++)
74 (ALLDPEVLSIFV; listed as Homo sapiens) [compound 74] | “+++” (≥50 = +++)
75 (GLLEVMVNL; listed as Homo sapiens) [compound 75] | “+++” (≥50 = +++)
76 (ILIDSIYKV; listed as Homo sapiens) [compound 76] | “+++” (≥50 = +++)
77 (ILVEADGAWVV; listed as Homo sapiens) [compound 77] | “++++” (≥75% = ++++)
78 (SLFSSLEPQIQPV; listed as Homo sapiens) [compound 78] | “+++” (≥50 = +++)
79 (SLFIGEKAVLL; listed as Homo sapiens) [compound 79] | “+++” (≥50 = +++)

Substance | Peptide exchange (MHC class I binding score, peptide exchange yield)
80 (FLYDNLVESL; listed as Homo sapiens) [compound 80] | “++” (≥20% = ++)
81 (FLFSQLQYL; listed as Homo sapiens) [compound 81] | “++” (≥20% = ++)
82 (FLSSVTYNL; listed as Homo sapiens) [compound 82] | “+++” (≥50 = +++)
83 (ILAPTVMMI; listed as Homo sapiens) [compound 83] | “+++” (≥50 = +++)
84 (VTFGEKLLGV; listed as Homo sapiens) [compound 84] | “++” (≥20% = ++)
85 (KMSELRVTL; listed as Homo sapiens) [compound 85] | “+++” (≥50 = +++)
86 (NLIGKIENV; listed as Homo sapiens) [compound 86] | “+++” (≥50 = +++)
87 (ALPEAPAPLLPHIT; listed as Homo sapiens) [compound 87] | “++” (≥20% = ++)
88 (FLLVGDLMAV; listed as Homo sapiens) [compound 88] | “+++” (≥50 = +++)
89 (YILPTETIYV; listed as Homo sapiens) [compound 89] | “++++” (≥75% = ++++)
90 (TLLQIIETV; listed as Homo sapiens) [compound 90] | “+++” (≥50 = +++)
91 (IMQDFPAEIFL; listed as Homo sapiens) [compound 91] | “++++” (≥75% = ++++)
92 (YLIPFTGIVGL; listed as Homo sapiens) [compound 92] | “++” (≥20% = ++)
93 (LLQAIKLYL; listed as Homo sapiens) [compound 93] | “++” (≥20% = ++)
94 (YLIDIKTIAI; listed as Homo sapiens) [compound 94] | “++” (≥20% = ++)
95 (SVIPQIQKV; listed as Homo sapiens) [compound 95] | “+++” (≥50 = +++)
96 (YIFTDNPAAV; listed as Homo sapiens) [compound 96] | “+++” (≥50 = +++)
97 (SLINGSFLV; listed as Homo sapiens) [compound 97] | “+++” (≥50 = +++)
98 (LIIDQADIYL; listed as Homo sapiens) [compound 98] | “+++” (≥50 = +++)

Substance | Peptide exchange (MHC class I binding score, peptide exchange yield)
99 (ALVSKGLATV; listed as Homo sapiens) [compound 99] | “++” (≥20% = ++)
100 (YLLSTNAQL; listed as Homo sapiens) [compound 100] | “++++” (≥75% = ++++)
101 (ILVGGGALATV; listed as Homo sapiens) [compound 101] | “+++” (≥50 = +++)
102 (YLFESEGLVL; listed as Homo sapiens) [compound 102] | “+++” (≥50 = +++)
103 (TLAEEVVAL; listed as Homo sapiens) [compound 103] | “+++” (≥50 = +++)
104 (STMEQNFLL; listed as Homo sapiens) [compound 104] | “++++” (≥75% = ++++)
106 (LLYDAVHIVSV; listed as Homo sapiens) [compound 106] | “+++” (≥50 = +++)
107 (FLQPVDDTQHL; listed as Homo sapiens) [compound 107] | “+++” (≥50 = +++)
108 (ALFPGVALLLA; listed as Homo sapiens) [compound 108] | “++++” (≥75% = ++++)
109 (IILSILEQA; listed as Homo sapiens) [compound 109] | “++++” (≥75% = ++++)
110 (FLSQVDFEL; listed as Homo sapiens) [compound 110] | “+++” (≥50 = +++)
111 (YVWGFYPAEV; listed as Homo sapiens) [compound 111] | “+++” (≥50 = +++)
113 (GLLPTPLFGV; listed as Homo sapiens) [compound 113] | “+++” (≥50 = +++)
114 (SLVGEPILQNV; listed as Homo sapiens) [compound 114] | “++” (≥20% = ++)
115 (AIAGAGILYGV; listed as Homo sapiens) [compound 115] | “++” (≥20% = ++)
116 (YHIDEEVGF; listed as Homo sapiens) [compound 116] | “+” (≥10% = +)
117 (ILPDGEDFLAV; listed as Homo sapiens) [compound 117] | “+++” (≥50 = +++)
118 (KLIDNNINV; listed as Homo sapiens) [compound 118] | “+++” (≥50 = +++)
119 (FLYIGDIVSL; listed as Homo sapiens) [compound 119] | “++++” (≥75% = ++++)
